{"source": "paper PMC8230831", "target": "CXC chemokine receptor 4 (CXCR4) (human (endogenous in HeLa)) (UniProt P61073)", "sequence (P61073 whole entry)": "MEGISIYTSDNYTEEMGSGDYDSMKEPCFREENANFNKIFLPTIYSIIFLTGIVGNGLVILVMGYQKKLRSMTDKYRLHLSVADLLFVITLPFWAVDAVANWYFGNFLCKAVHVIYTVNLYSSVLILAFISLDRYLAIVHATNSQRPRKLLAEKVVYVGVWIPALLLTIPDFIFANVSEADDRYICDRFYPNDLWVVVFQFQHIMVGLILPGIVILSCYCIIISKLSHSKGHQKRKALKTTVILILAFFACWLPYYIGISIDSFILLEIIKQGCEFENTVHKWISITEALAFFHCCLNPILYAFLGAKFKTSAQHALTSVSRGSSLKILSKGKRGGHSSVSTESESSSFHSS", "details": "scale: apoptotic figures per 400 x magnification tumor field", "data": [{"substance": "biparatopic EPIX4-(RK)-GFP-H6/T22-GFP-H6 NPs (complex)", "values": [{"measurement": "apoptotic figures in CXCR4+ M5 colorectal tumors of mice, 0.5 to 24 h after a single 200 µg i.v. dose (histology); peak at 24 h", "value": 30}]}]}
